Patent publication US20160108110A1 (Novartis, published 2016)

T1: Human ANGPTL4(26-406)-FLAG-His6-Avi (human, UniProt Q9BY76 24-406, biotin on the C-terminal Avi tag in the biotinylated preparations (immobilised form in SET, ELISA and Octet))
T1 sequence: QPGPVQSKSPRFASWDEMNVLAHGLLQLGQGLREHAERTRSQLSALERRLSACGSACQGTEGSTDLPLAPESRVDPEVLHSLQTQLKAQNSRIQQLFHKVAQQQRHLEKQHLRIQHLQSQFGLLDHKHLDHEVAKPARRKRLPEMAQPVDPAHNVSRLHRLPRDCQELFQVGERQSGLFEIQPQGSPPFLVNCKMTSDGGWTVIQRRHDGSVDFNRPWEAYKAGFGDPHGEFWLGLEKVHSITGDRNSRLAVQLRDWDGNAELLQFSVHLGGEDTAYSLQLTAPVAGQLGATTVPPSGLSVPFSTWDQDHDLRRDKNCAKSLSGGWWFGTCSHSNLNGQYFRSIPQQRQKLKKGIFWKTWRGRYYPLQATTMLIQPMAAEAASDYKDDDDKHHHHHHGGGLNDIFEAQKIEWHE

T2: ANGPTL4-derived peptide P4 (human)
T2 peptide: FASWDEMNVLAHGLL

T3: ANGPTL4-derived peptide P9 (human)
T3 peptide: QLGQGLREHAERTRS

T4: ANGPTL4-derived peptide P11 (human)
T4 peptide: REHAERTRSQLSALE

T5: ANGPTL4-derived peptide P14 (human)
T5 construct: printed with S where human ANGPTL4 has C
T5 peptide: QLSALERRLSASGSA

T6: ANGPTL4-derived peptide P17 (human)
T6 construct: printed with S where human ANGPTL4 has C
T6 peptide: SASGSASQGTEGSTD

T7: ANGPTL4-derived peptide P20 (human)
T7 peptide: TEGSTDLPLAPESRV

T8: ANGPTL4-derived peptide P21 (human)
T8 peptide: STDLPLAPESRVDPE

T9: ANGPTL4-derived peptide P24 (human)
T9 peptide: SRVDPEVLHSLQTQL

T10: ANGPTL4-derived peptide P26 (human)
T10 peptide: VLHSLQTQLKAQNSR

T11: ANGPTL4-derived peptide P33 (human)
T11 peptide: KVAQQQRHLEKQHLR

T12: ANGPTL4-derived peptide P43 (human)
T12 peptide: KHLDHEVAKPARRKR

T13: Human ANGPTL3(17-460)-FLAG-His-Avi (human, UniProt Q9Y5C1 17-460, biotin on the C-terminal Avi tag)
T13 construct: also called full length human ANGPTL3; hANGPTL3
T13 sequence: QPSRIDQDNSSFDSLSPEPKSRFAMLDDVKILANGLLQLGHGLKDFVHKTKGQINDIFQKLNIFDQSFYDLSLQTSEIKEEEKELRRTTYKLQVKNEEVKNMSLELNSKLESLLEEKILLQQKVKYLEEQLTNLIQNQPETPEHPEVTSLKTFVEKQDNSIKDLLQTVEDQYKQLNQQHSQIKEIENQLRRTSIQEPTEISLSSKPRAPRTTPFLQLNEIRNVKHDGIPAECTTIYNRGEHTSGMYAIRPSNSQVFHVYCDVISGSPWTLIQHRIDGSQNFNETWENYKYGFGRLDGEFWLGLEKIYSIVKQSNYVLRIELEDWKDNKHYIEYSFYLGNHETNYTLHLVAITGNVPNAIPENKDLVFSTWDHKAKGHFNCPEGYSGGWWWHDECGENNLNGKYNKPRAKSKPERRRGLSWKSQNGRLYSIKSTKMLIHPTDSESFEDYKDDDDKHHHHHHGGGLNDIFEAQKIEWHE


Experiments:
[1] = molecular target: T1, Human ANGPTL4(26-406)-FLAG-His6-Avi; test: cell-based or functional assay
[2] = molecular target: T2, ANGPTL4-derived peptide P4; test: peptide array, immobilised linear 15-mers
Procedure: (§1) The ability of selected antibodies of invention, namely MOR022765 and MOR022770, to bind to linear 15-amino-acid peptides derived from the N-terminal coiled coil domain of human ANGPTL4 was tested. The peptides were immobilized on a glass surface, and the ability of MOR022765 and MOR022770 to bind to the immobilized peptides was evaluated using experimental methods optimized for linear peptide epitope mapping at JPT Peptide Technologies (Berlin, Germany).

[3] = molecular target: T3, ANGPTL4-derived peptide P9; test: peptide array, immobilised linear 15-mers
Procedure: as §1

[4] = molecular target: T4, ANGPTL4-derived peptide P11; test: peptide array, immobilised linear 15-mers
Procedure: as §1

[5] = molecular target: T5, ANGPTL4-derived peptide P14; test: peptide array, immobilised linear 15-mers
Procedure: as §1

[6] = molecular target: T6, ANGPTL4-derived peptide P17; test: peptide array, immobilised linear 15-mers
Procedure: as §1

[7] = molecular target: T7, ANGPTL4-derived peptide P20; test: peptide array, immobilised linear 15-mers
Procedure: as §1

[8] = molecular target: T8, ANGPTL4-derived peptide P21; test: peptide array, immobilised linear 15-mers
Procedure: as §1

[9] = molecular target: T9, ANGPTL4-derived peptide P24; test: peptide array, immobilised linear 15-mers
Procedure: as §1

[10] = molecular target: T10, ANGPTL4-derived peptide P26; test: peptide array, immobilised linear 15-mers
Procedure: as §1

[11] = molecular target: T11, ANGPTL4-derived peptide P33; test: peptide array, immobilised linear 15-mers
Procedure: as §1

[12] = molecular target: T12, ANGPTL4-derived peptide P43; test: peptide array, immobilised linear 15-mers
Procedure: as §1

[13] = molecular target: T1, Human ANGPTL4(26-406)-FLAG-His6-Avi; test: cell-based or functional assay; remark: listed apart in the source
[14] = molecular target: T13, Human ANGPTL3(17-460)-FLAG-His-Avi; test: direct ELISA on streptavidin-coated MSD plate: biotinylated antigen immobilised at 1 nM, antibody at 1 nM, detection with Sulfo-tagged goat anti-human IgG
Procedure: Direct ELISA assays were conducted to characterize antibody binding specificity of selected antibodies of the invention. The assay was performed as follows. A 384-well streptavidin-coated Meso Scale Discovery (MSD) plate was blocked by incubating the plate with 50 μL Blocking Buffer (PBS, pH 7.4, 5% w/v bovine serum albumin) per well at 22° C. for 1 hour with constant shaking (600 rpm). The blocked MSD plate was then washed 3 times with Wash Buffer (PBS, pH 7.4 and 0.05% v/v Tween-20) using a plate washer (BioTek). Following washing, biotinylated human ANGPTL4 proteins diluted in Assay Buffer (PBS, pH 7.4 without CaCl₂ or MgCl₂, 0.5% w/v fatty acid-free bovine serum albumin and 0.02% v/v Tween-20) were immobilized on the surface by incubation at 1 nM concentration (15 μL per well) at 22° C. for one hour: full length human ANGPTL4 (hANGPTL4), human ANGPTL4 coiled-coil domain (hANGPTL4-CCD) and full length human ANGPTL3 (hANGPTL3). The plate was then washed 3 times as described earlier. Antibody diluted to 1 nM concentration in Assay Buffer was then applied to the MSD plate […], and the plate was incubated for 1 hour at 22° C. with constant shaking (600 rpm). Bound antibodies were detected by adding 15 μL per well of a 1:500 dilution of Sulfo-tagged goat anti-human IgG. The plate was then incubated for one hour with constant shaking (600 rpm). The plate was washed 3 times, and then 15 μL/well of 1×MSD read buffer T was added and the plate was developed using a Sector Imager 6000 (Meso Scale Discovery). The data were transferred to Microsoft Excel for analysis and plotted using GraphPad Prism v6. […] An ANGPTL3-specific reference antibody was used as a positive control for the ANGPTL3 binding assay (FIG. 2).

| Reversal of human ANGPTL4 inhibition of human LPL EC50 [1] [nM] | binding result [2] | binding result [3] | binding result [4] | binding result [5] | binding result [6] | binding result [7] | binding result [8] | binding result [9] | binding result [10] | binding result [11] | binding result [12] | EC50 (read off the curve) [1(A] [13] [nM] | binding result [14] | Binder |
| --- | --- | --- | --- | --- | --- | --- | --- | --- | --- | --- | --- | --- | --- | --- |
| 3 | no binding | no binding | no binding | no binding | no binding | no binding | no binding | no binding | no binding | no binding | no binding |  |  | MOR022765 (antibody, human IgG1, lambda, V domains shown, human IgG1) VH: EVQLVQSGAEVKKPGESLKISCKGSGYSFSTYWISWVRQMPGKGLEWMGIIDPSSSDTRYSPSFQGQVTISADKSISTAYLQWSSLKASDTAMYYCARVYGYVYMDVWGQGTLVTVSS VL: SYELTQPLSVSVALGQTARITCSGDNLGKKYAYWYQQKPGQAPVLVIYDKTKRPSGIPERFSGSNSGNTATLTISRAQAGDEADYYCASYDWYSSSYVFGGGTKLTVLG |
|  |  |  |  |  |  |  |  |  |  |  |  | 1 to 2 | no binding (tested: 1 nM) | MOR021792 (antibody, human IgG1, lambda, V domains shown) VH: QVQLLESGGGLVQPGGSLRLSCAASGFTFSDYAMDWVRQAPGKGLEWVSKISYDGSYTYYADSVKGRFTISRDNSKNTLYLQMNSLRAEDTAVYYCARPSMSYYIIPAGFDVWGQGTLVTVSS VL: DIELTQPPSVSVSPGQTASITCSGDALGVKRASWYQQKPGQAPVLVIYKDNNRPSGIPERFSGSNSGNTATLTISGTQAEDEADYYCSVRTWSMNLYVFGGGTKLTVLG |
|  |  |  |  |  |  |  |  |  |  |  |  |  | no binding (tested: 1 nM) | MOR021798 (antibody, human IgG1, lambda, V domains shown, human IgG1) VH: QVQLLESGGGLVQPGGSLRLSCAASGFTFSDYALHWVRQAPGKGLEWVSRISYMGSSTYYADSVKGRFTISRDNSKNTLYLQMNSLRAEDTAVYYCAREHYYSSPMGGVAVDNWGQGTLVTVSS VL: DIVLTQPPSVSGAPGQRVTISCSGSSSNIGYNTVSWYQQLPGTAPKLLIYSNNIRPSGVPDRFSGSKSGTSASLAITGLQAEDEADYYCSSWDFLIKSLVFGGGTKLTVLG |
